Values of other authors as cited in article PMC5904127.
pKd: −log10 of the molar value.

Biological target: apocalmodulin (UniProt P0DP23)

pKd: 5.70
Substance: neuromodulin IQ domain (from UniProt P17677)
